Three molecules from paper PMC3033577 (FEBS letters, 2004) can be followed below.

The target in series [1] is T1, DnaD (Bacillus subtilis (strain 168 EMG50), UniProt P39787 1-232).
T1 sequence: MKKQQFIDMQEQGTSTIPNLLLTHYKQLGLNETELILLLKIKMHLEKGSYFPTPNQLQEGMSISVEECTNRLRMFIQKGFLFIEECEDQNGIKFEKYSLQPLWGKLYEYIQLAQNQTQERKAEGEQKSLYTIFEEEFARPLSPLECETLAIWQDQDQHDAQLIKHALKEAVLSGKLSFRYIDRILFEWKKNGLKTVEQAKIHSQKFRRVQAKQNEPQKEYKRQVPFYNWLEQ
The experiment in a line: EMSA.

The target in series [2] is T1, DnaD. The experiment in a line: sedimentation velocity ultracentrifugation.
Series [3] deals with T2, B. stearothermophilus DnaB, main replicative ring helicase (B. stearothermophilus, UniProt Q9X4C9 1-454).
T2 sequence (looked up): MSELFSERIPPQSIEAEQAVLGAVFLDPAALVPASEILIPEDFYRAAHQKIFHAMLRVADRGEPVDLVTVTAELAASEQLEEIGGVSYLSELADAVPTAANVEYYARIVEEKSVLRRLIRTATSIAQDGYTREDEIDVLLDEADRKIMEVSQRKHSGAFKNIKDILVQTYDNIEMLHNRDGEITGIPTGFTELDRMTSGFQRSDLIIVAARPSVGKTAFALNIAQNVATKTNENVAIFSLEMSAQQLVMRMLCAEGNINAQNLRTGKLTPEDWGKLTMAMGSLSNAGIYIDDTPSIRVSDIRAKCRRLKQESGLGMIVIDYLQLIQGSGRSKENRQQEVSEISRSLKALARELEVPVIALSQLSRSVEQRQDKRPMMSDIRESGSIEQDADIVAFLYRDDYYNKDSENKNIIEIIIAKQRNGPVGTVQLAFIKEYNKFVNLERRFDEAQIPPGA
Description: SEC.

As for TGCATGCCTGCAGGTCGACTCTAGAGGATCCCC (ssDNA) [33mer oligonucleotide (radiolabeled)], the binding result in the series with DnaD [1] was “binds”.

For the molecule TGCATGCCTGCAGGTCGACTCTAGAGGATCCCC (ssDNA) [33mer oligonucleotide (5'-HEX)], the binding result with DnaD [2] is given as “binds”.

B1: B. subtilis DnaI, putative helicase loader (natural protein, UniProt P06567 1-311, looked up)
chain: MEPIGRSLQGVTGRPDFQKRLEQMKEKVMKDQDVQAFLKENEEVIDQKMIEKSLNKLYEYIEQSKNCSYCSEDENCNNLLEGYHPKLVVNGRSIDIEYYECPVKRKLDQQKKQQSLMKSMYIQQDLLGATFQQVDISDPSRLAMFQHVTDFLKSYNETGKGKGLYLYGKFGVGKTFMLAAIANELAEKEYSSMIVYVPEFVRELKNSLQDQTLEEKLNMVKTTPVLMLDDIGAESMTSWVRDEVIGTVLQHRMSQQLPTFFSSNFSPDELKHHFTYSQRGEKEEVKAARLMERILYLAAPIRLDGENRRHP
As for B1, the binding result in series [3] is “binds”.
